# Experimental data taken from patent US20150252107A1, “APLNR Modulators and Uses Thereof” (Regeneron Pharmaceuticals, Inc., priority 2013, published 2015).
# No end group written: not given here.
# T1: hAPLNR (Homo sapiens, UniProt P35414)
# T1 construct: expressed in transfected cells
# T1 sequence (P35414 1-380): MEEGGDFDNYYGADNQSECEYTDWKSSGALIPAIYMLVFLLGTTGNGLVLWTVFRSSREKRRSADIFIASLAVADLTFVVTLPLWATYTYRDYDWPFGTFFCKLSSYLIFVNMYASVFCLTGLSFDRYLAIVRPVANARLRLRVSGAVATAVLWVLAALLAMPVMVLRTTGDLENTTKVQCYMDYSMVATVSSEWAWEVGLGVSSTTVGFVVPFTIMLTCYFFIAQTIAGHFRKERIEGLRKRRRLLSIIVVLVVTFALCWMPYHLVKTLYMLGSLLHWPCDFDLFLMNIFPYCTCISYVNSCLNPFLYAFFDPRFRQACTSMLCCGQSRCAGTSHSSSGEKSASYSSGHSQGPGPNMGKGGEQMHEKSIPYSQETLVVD
# Tests used:
# hAPLNR [1] = target: T1, hAPLNR; assay: CRE assay of modified apelin peptides in HEK293/CRE-luc/hAPLNR cells; type: cell-based; details: Table 9; 5 μM forskolin
# Method: After 5 hours of incubation at 37° C. in 5% CO2, luminescence was measured following the addition of One Glo reagent (Promega, #E6051) using a Victor X instrument (Perkin Elmer). The data were fit by nonlinear regression to a 4-parameter logistic equation with Prism 5 software (GraphPad).
# HEK293 parental cells = assay: FACS binding to HEK293 parental cells; details: 10 μg/mL antibody
# Method: Binding ratios for human APLNR binding to purified anti-APLNR monoclonal antibodies were determined by a fluorescence-activated cell sorting (FACS) binding assay. […] The resulting stable cell lines, HEK293/CRE-luc/hAPLNR and HEK293/CRE-luc/MfAPLNR, were maintained in DMEM containing 10% FBS, NEAA, and penicillin/streptomycin with either 100 μg/mL Hygromycin B for hAPLNR cells or 500 μg/mL G418 for MfAPLNR cells.
# For the FACS analysis, HEK293 parental, HEK293/CRE-luc/hAPLNR, and, HEK293/CRE-luc/mfAPLNR cells were dissociated using Enzyme Free Dissociation reagent (#S-004, Millipore, Billerica, Mass., USA) and 10^6 cells/well were plated onto 96-well v-bottom plates in PBS containing 1% FBS. […] Cells were then filtered and analyzed on Accuri Flow Cytometer (BD Biosciences, San Jose, Calif., USA). Unstained and secondary antibody alone controls were also tested for binding to all cell lines. […] Geometric mean (Geom. mean) of fluorescence for each antibody was then normalized to geometric mean of unstained cells to obtain relative binding of antibody (binding ratios) per each cell type: HEK293 (parental), HEK293/CRE-luc/hAPLNR and HEK293/CRE-luc/MfAPLNR.
# hAPLNR [2] = target: T1, hAPLNR; assay: cyclic AMP (CRE-luciferase) assay, activation of hAPLNR in HEK293/CRE-luc/hAPLNR cells; type: cell-based; details: without Apelin; for % Activation at 100 nM mAb (at 10 uM Forskolin) / % Activation at 100 nM mAb (at 5 uM Forskolin): Table 6A, % of maximum Apelin activation
# Method: The ability of anti-APLNR antibodies to activate hAPLNR-mediated cell signaling was measured using a cyclic AMP assay. The hAPLNR is a 7-transmembrane G-protein coupled receptor (GPCR).
# (§1) The resulting cell line, HEK293/CRE-luc/hAPLNR, was maintained in DMEM containing 10% FBS, NEAA, penicillin/streptomycin, and 100 μg/mL Hygromycin B.
# (§2) Testing of antibodies included a no antibody control.
# (§3) The results of all assays were analyzed using nonlinear regression (4-parameter logistics) within Prism 5 software (GraphPad).
# hAPLNR [3] = target: T1, hAPLNR; assay: cyclic AMP (CRE-luciferase) assay, inhibition of hAPLNR in the presence of 100 pM Apelin; type: cell-based; details: Tables 6C and 6D
# Method: as §1, §2, §3
Molecule,"Binding Ratio of Geom. Mean to Unstained Cells, HEK293 Parental (HEK293 parental cells)",% Activation at 100 nM mAb (at 10 uM Forskolin) (hAPLNR [2]),% Activation at 100 nM mAb (at 5 uM Forskolin) (hAPLNR [2]),inhibition (maximum blockade) of 100ρM Apelin activation (hAPLNR [3]),further results
"CSCC[C@H](NC(=O)[C@@H]1CCCN1C(=O)CNC(=O)[C@H](CCCCN)NC(=O)[C@H](Cc1c[nH]cn1)NC(=O)[C@H](CO)NC(=O)[C@H](CC(C)C)NC(=O)[C@H](CCCNC(=N)N)NC(=O)[C@@H]1CCCN1)C(=O)N1CCC[C@H]1C(=O)N[C@@H](Cc1ccccc1)C(=O)O [Apelin-11, reference compound]",–,–,–,–,EC50 (hAPLNR [1]): 438 pM
RPRLSHKGPM [Apelin66-75],–,–,–,–,EC50 (hAPLNR [1]): 2.17 pM
PRLSHKGPM [Apelin67-75],–,–,–,–,EC50 (hAPLNR [1]): 374000 pM
CSCC[C@H](NC(=O)[C@@H]1CCCN1C(=O)CNC(=O)[C@H](CCCCN)NC(=O)[C@H](Cc1c[nH]cn1)NC(=O)[C@H](CO)NC(=O)[C@H](CC(C)C)NC(=O)[C@H](CCCNC(=N)N)NC(=O)[C@@H]1CCCN1C(=O)[C@@H](N)CCCNC(=N)N)C(=O)N1CCC[C@H]1C(=O)O [Apelin66-76],–,–,–,–,EC50 (hAPLNR [1]): 5.19 pM
"H2aM9227N: anti-APLNR antibody, HCVR/LCVR SEQ ID NOs 50/58, mouse IgG2a Fc (antibody, V domains shown, mouse IgG2a Fc) VH: EVQLVESGGGLVQPGGSLRLSCAASGFTFSSFWMSWVRQVPGKGLEWVANIKQDGSEKYYVDSVKGRFTISRDNAKNSLYLQMNSLRAEDTAVYYCARDRFGYSFYDKGVRYYYGMDVWGQGTTVTVSS VL: DIQMTQSPSSLSVSVGDRVTITCRASQGIRNDLGWYQQKPGKAPKRLIYATSSLQSGVPSRFSGSGSGTEFTLTISGLQPEDFATYYCLQHNSYPRTFGQGTKVEIK",4,12%,–,–,"activation of hAPLNR, % of maximum Apelin activation at 100 nM, the highest antibody dose tested (hAPLNR [2]; text on Table 6A): 12%"
"H2aM9228N: anti-APLNR antibody, HCVR/LCVR SEQ ID NOs 66/74, mouse IgG2a Fc (antibody, V domains shown, mouse IgG2a Fc) VH: EVQLVESGGGLVQPGGSLRLSCAASGFTFSNYWMSWVRLAPGKGLEWVANIKQDGSERYYVGSVKGRFTISRGDAKNSLYLQMNSLRAEDTAVYYCARDRFGYSAFDKGVRYYYGMDVWGQGTTVTVSS VL: DIQMTQSPSSLSASVGDRVTITCRASQGIRNDLGWYQQKPGKAPKRLIYAASSLQSGVPSRFSGSGSGTEFTLTISSLQPEDFATYYCLQHNSYPRTFGQGTKVEIK",3,No Activation,–,–,–
"H2aM9222N: anti-APLNR antibody, HCVR/LCVR SEQ ID NOs 34/42, mouse IgG2a Fc (antibody, V domains shown, mouse IgG2a Fc) VH: EVQLVESGGGLVQPGGSLRLSCAASGFTFSNYWMSWVRQAPGKGLEWVANIKQDGSERYYVGSVKGRFTISRGDAENSLYLQMNSLRAEDTAVYYCARDRFGYSAYDKGVRYYYGMDVWGQGTTVTVSS VL: DIQMTQSPSSLSASVGDRVTITCRASQGIRNDLGWYQQKPGKAPKRLIYAASSLQSGVPSRFSGSGSGTEFTLTISSLQPEDFATYYCLQHNSYPRTFGQGTKVEIK",2,No Activation,–,–,–
"H2aM9230N: anti-APLNR antibody, HCVR/LCVR SEQ ID NOs 82/90, mouse IgG2a Fc (antibody, V domains shown, mouse IgG2a Fc) VH: EVQLVESGGGLVQPGGSLRLSCAASGFTFSSFWMSWVRQVPGKGLQWVANIKQDGSEKYYVDSVKGRFTISRDNAKNSLYLQMNSLRAEDTAVYYCARDRFGYSVYDKGVRYYYGMDVWGQGTTVTVSS VL: DIQMTQSPSSLSVSVGDRVTITCRASQGIRNDLGWYQQKPGKAPKRLIYAASSLQSGVPSRFSGSGSGTEFTLTISGLQSEDFATYYCLQHKSYPRTFGQGTKVEIK",3,No Activation,–,–,–
"H4H9113P: anti-APLNR antibody, HCVR/LCVR SEQ ID NOs 210/218, human IgG4 Fc (antibody, V domains shown, human IgG4 Fc) VH: QVQLVQSGAEVKKPGASVEVSCKASGYTFTDYYIHWIRQAPGQGLEWMGWINPDSGRTNYAQKFQVRVTMTRDTSITTAYMELNRLKSDDTAVYYCARGPLRGYSGYDFFDYWGQGTLVTVSS VL: DIQMTQSPSSLSASVGDRVTITCRASQGIRNDLGWYQQKPGKAPNRLIYAASSLQSGVPSRFSGSGSGTEFTLTISSLHPEDFATYSCLQHNSFPLTFGGGTKVEIK",–,–,No Activation,did not demonstrate any measurable blockade,–
"H4H9103P: anti-APLNR antibody, HCVR/LCVR SEQ ID NOs 162/170, human IgG4 Fc (antibody, V domains shown, human IgG4 Fc) VH: EVQLVESGGGLVQPGRSLRLSCAASGFTFDDYAMHWVRQVPGKGLEWVSGITWNSGDIGYADSVKGRFTISRDNAKNSLYLQMNSLRAEDTALYYCTKDKDSSGYYGIDVWGQGTTVTVSS VL: DIQMTQSPSSVSASVGDRVTITCRASQGIRTWLAWYQQKPGKAPKLLIYAASSLQSGVPSRFSGSESGTDFTLTISSLQPEDFATYYCQQANSFPFTFGPGTKVDIK",–,–,No Activation,did not demonstrate any measurable blockade,–
"H4H9104P: anti-APLNR antibody, HCVR/LCVR SEQ ID NOs 178/186, human IgG4 Fc (antibody, V domains shown, human IgG4 Fc) VH: QVQLVESGGDLVKPGGSLRLSCAASGFTFSDYYMNWIRQAPGKGLEWVSYISSSGSTIHYADSVKGRFTISRDNAKNLVYLRMNSLRAEDTAVYFCAREREVHDYSDPYFFFYGMDVWGQGTTVTVSS VL: DIQMTQSPSSVSASVGDRVTITCRASQDVSSWLAWYQHKPGKAPKLLIFAASSLQSGVPSRFSGSGSGTDFTLTISSLQSEDFATYYCQQANSFPLTFGGGTKVEIK",–,–,No Activation,did not demonstrate any measurable blockade,–
"H4H9101P: anti-APLNR antibody, HCVR/LCVR SEQ ID NOs 146/154, human IgG4 Fc (antibody, V domains shown, human IgG4 Fc) VH: QVQLVQSGAEVKKPGASVEVSCKASGYTFTDYYIHWIRQAPGQGLEWMGWINPDSGRTNYAQKFQVRVTMTRDTSITTAYMELNRLKSDDTAVYYCARGPLRGYSGYDFFDYWGQGTLVTVSS VL: DIQLTQSPSFLSASVGDRVTITCWASQGISSYLAWYQQKPGKAPKLLIYAASTLQSGVPSRFSGSGSGTEFTLTISSLQPEDFASYFCQQLNSNPRTFGQGTKVEIK",–,–,No Activation,did not demonstrate any measurable blockade,–
"H1M9207N: anti-APLNR antibody, HCVR/LCVR SEQ ID NOs 2/10, mouse IgG1 Fc (antibody, V domains shown, mouse IgG1 Fc) VH: EVQLVESGGGLAQPGGSLRLSCAASGFTFSNYWMSWVRQAPGKGLEWVANIKQDGSEKYYLESVKGRFTISRDNAKNLLYLQMNSLRAEDTAVFYCARPGLLRFLEPGRRYYSGMNVWGQGTTVTVSS VL: DIQLTQSPSFLSASVGDRVTITCWASQGIRSYLAWYQQKPGKAPKLLIYAASTLQSGVPSRFSGSGSGTEFTLTISSLQPEDFATYYCQQFNSYPWTFGQGTKVEIK",4,No Activation,–,–,–
"H4H9112P: anti-APLNR antibody, HCVR/LCVR SEQ ID NOs 194/202, human IgG4 Fc (antibody, V domains shown, human IgG4 Fc) VH: QVQLVQSGAEVKKPGASVEVSCKASGYTFTDYYIHWIRQAPGQGLEWMGWINPDSGRTNYAQKFQVRVTMTRDTSITTAYMELNRLKSDDTAVYYCARGPLRGYSGYDFFDYWGQGTLVTVSS VL: DIQMTQSPSSLSAFVGDRVTITCRASQSISSYLNWYQQKPGKAPKLLIYTASTLQRGVPSRFRGSGSGTDFTLTISSLQPEDFATYYCHQTYSIPITFGQGTRLEIK",–,–,No Activation,did not demonstrate any measurable blockade,–
